Literature values in paper PMC2749146.

Test system: Cys
Experiment: UV-vis
Settings: Reduced; the protein unfolds below pH 3, so deprotonation and unfolding overlap.

Q: Which pKa does the source give for DsbA (EcDsbA) (Escherichia coli) here?
A: ∼3.5
